B1: TPR t1 (parent)
chain: GACCAAUCUGCCCUCAGAGCUCGAGAACAUCUUCGGAUGCAGAGGAGGCAGGCUUCGGUGGCGCGAUAGCGCCAACGUCCUCAACCUCCAAUGCAUCCCACCACAUGAUGAUGCCUGAAGAGCCUUGGUUUUUUG

Variants of: B1
Experiment: polymerase ribozyme fitness, log enrichment relative to wild type (log ratio); higher = more active; in vitro selection for triplet polymerase activity
In short: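 Libraries of mutants in each subunit of a heterodimeric triplet polymerase ribozyme were generated by PCR and transcribed. In triplicate, each went through one in vitro selection round: annealing with biotinylated primer, partner subunit and triplets; frozen incubation at −7 °C; gel excision of extended constructs; streptavidin-bead capture; RT-PCR. Fitness, taken from Illumina sequencing of input and output libraries, is the logarithm of a genotype's enrichment over wild-type enrichment, averaged across replicates with inverse-variance weights. The logarithm is base 2, and genotypes needed ≥10 input reads and ≥1 read per output to be kept.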

In order of falling “polymerase ribozyme fitness (log ratio)” value:
1. G47C U54G G58C G69U  1.13
2. G47U A100C U106A C124G  0.694
3. G47U C70U C82G G120U C124G G127A  -0.105
4. G47A U55A  -0.45
5. G47C C89U C124G  -0.507
6. G47U G120A  -0.734
7. G47U C123A  -0.877
8. G47U C124A U130G  -0.902
9. G47U G69U  -0.915
10. G47A G71U C123A  -0.967
11. G47U C49G  -0.991
12. G47C C86U A105U A121C  -1.01
13. G47U G58C C82U C86U  -1.04
14. G47U C53U G120U  -1.25
15. G47C C123G  -1.31
16. G47A U133A  -1.33
17. G47U C56U A95U  -1.34
18. G47U G60U U112G  -1.51
19. G47A G71C  -1.56
20. G47U U78G  -1.6
21. G47A G120A U126A  -1.73
22. G47U G57A  -1.73
23. G47C G58A  -1.77
24. G47U A119U  -1.82
25. G47U G77U  -2.07
26. G47U G77A  -2.15
27. G47C C49G  -2.19
28. G47C C70U  -2.2
29. G47C C56G C72G C82U C97U U112A  -2.21
30. G47U C73G C82U  -2.22
31. G47C U55G G71U U106A U129A G135C  -2.24
32. G47A G135U  -2.25
33. G47U G110A  -2.29
34. G47U A50U U59C C73A U78A U133A  -2.31
35. G47U C53A U129G  -2.44
36. G47C C72U C94U  -2.45
37. G47C G48A C86U A90U  -2.46
38. G47C U125A  -2.59
39. G47U C53A C114A  -2.64
40. G47C G117A  -2.73
41. G47U C114A  -2.77
42. G47U G117U  -2.78
43. G47U G48U C79U  -2.83
44. G47U C72U C94A  -2.85
45. G47C C72G  -2.9
46. G47U C115A  -2.9
47. G47U G61C A111C  -2.97
48. G47U G93U  -2.97
49. G47U C101U U125G U126C  -2.99
50. G47C A111G C123U  -3.06
51. G47U G110U  -3.1
52. G47U G48U U59A C79U  -3.11
53. G47U C49G C70U U87C A100C  -3.16
54. G47A U96G G110A  -3.19
55. G47C U55G G63A C104U  -3.2
56. G47U G63U C85A  -3.29
57. G47U C114U  -3.33
58. G47U C72G U81A  -3.46
59. G47U C72U U78C G113C  -3.65
60. G47U C98U U112A  -3.7
61. G47C G113C  -3.85
62. G47U G61U G110A  -3.87
63. G47U G51U G60C  -3.98
64. G47C G113U  -4.11
65. G47C C70U C89U  -4.18
66. G47U G71A U87A  -4.27
67. G47U A95C G128C  -4.33
68. G47U A95C U96A  -4.33
69. G47U C98U  -4.36
70. G47U A90U G117C  -4.37
71. G47U C53U C79A  -4.4
72. G47U G61C U126G  -4.45
73. G47C A111U  -4.54
74. G47C A50U C72U U81C C114U  -5.1
75. G47U A100U U116A G117A U132A  -5.1
76. G47C U112G C115U U130A  -5.2
77. G47A U78C C88A C97A U106A  -5.69
78. G47U C76A C79A C80G C94G A100C U116G C124U U129A  -5.73
79. G47U C80G U87A C101U C123A G127A  -5.76
80. G47C G77C C98U G113C U130C  -6.15
81. G47U G51U C73U  -6.37
82. G47U C80A G113A  -6.73
83. G47U C88G U96A U112A  -6.98
84. G47C C64A C104U  -7.34
